Measurements published in patent US5668109A, “Peptides for inhibiting pepsin release” (Societe de Conseils de Recherches et D'Applications …, priority 1994, dated 1997).
Square brackets hold non-standard residues; d marks the D form. Ends that are not written are not given here.

Settings: in vivo

Pro--Val--Thr--Lys--Pro--Gln-D-Ala--NH2 (PVTKPQ[dA]-NH2; N-terminus assumed; SMILES CC(C)[C@H](NC(=O)[C@@H]1CCCN1)C(=O)N[C@H](C(=O)N[C@@H](CCCCN)C(=O)N1CCC[C@H]1C(=O)N[C@@H](CCC(N)=O)C(=O)N[C@H](C)C(N)=O)[C@@H](C)O) [P^D1]
quantity found in the organism: greater than 10%
